How the values were obtained:
[1] = target: T1, human 4EHP (residues 45-234) for ITC (human, UniProt O60573 45-234); assay: ITC
T1 chain: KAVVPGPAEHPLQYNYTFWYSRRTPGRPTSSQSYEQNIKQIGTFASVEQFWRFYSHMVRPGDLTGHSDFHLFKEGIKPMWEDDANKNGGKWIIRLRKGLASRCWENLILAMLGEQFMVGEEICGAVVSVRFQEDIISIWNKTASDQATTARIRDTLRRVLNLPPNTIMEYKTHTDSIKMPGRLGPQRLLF

[2] = target: T1, human 4EHP (residues 45-234) for ITC; assay: ITC; VP-ITC, 25 °C; TRS (1-74, 0.6 mM) in the syringe titrated against 4EHP (45-234, 0.035 mM); single binding site model

Ka [1]: 403000 M⁻¹
Kd [2]: 2480 nM
stoichiometry N [2]: 1
B1: human TRS UNE-T (residues 1-74) with C-terminal His tag (domain or fragment)
chain: MFEEKASSPSGKMGGEEKPIGAGEEKQKEGGKKKNKEGSGDGGRAELNPWPEYIYTRLEMYNILKAEHDSILAE

Source: publication PMC6430810 (2019)
